Drawing on a protein production outcome set (Wang et al. 2014), this text covers protein production for 16 sequences.

This series can be described thus: label from the status in PepcDB records.
Consider “MVTLSDPNRRSRRIKRITIVGCLGNLLLTIGKFFSGFVGHSGAMIADAVHSLSDLLTDFVVFIFISISGKPSDKNHDYGHGKFETLATAIIAVTLIIIGAMLCSDGLTKVYRYLRFGDELARPGLIALLMAFVSIVAKEWLFRITRCVGKEENSRSVIANAWHHRSDAYTSVATFIGIGCAFLLGRGWMILEPLSAAVVSVFIIKVGFQMAVPAFRDLLEQSLPDDIEEEIEKIICSESMVKGVRRIRTRNIGNYYAVEADILMDGGLSVALSHAATQRVEKLLRGRYGQPTHIVIHVEPFS”, for which the protein production entry is given as “failed”.

As to “MVTLTLLEPQQKTPLKQWCFENSSVIRIGRAADNHVILSDNLVSRHHLEIRQVSSGGGGSWQVVSKGTNGTFLNGVLVIQDALPNNALLQLAQGGPILQFQVQGIIPPEWQSISGSDSPLSGRGSLAEKSSPELSNNPGSLTCTHEGNSPQNLFCIHCGQPLSVIQTIRHYQVLRTLGQGGMGTTYLAWDAAGVIVGHPKLLVLKQMNADMARIAKAQELFEREAYTLKSLDHPGIPRYYDFFVEGGKKYLAMELVHGQDLEKRIYATGPVIPSLAIAWMIQTCDILDYLHRQEQPLIHRDIKPANLMVRTANNQIAVLDFGAVKEIGTTPGTRIGAEGYCAPEQERGQPLTQSDLYAIGPTIIFLLTGENPFKFYRQKGRGFRFDVSKIPTITPKLRDVIERTTEPLPRDRFQSAKELAAALAACK”, the protein production result is “failed”.

On to “MVTQEQRRRQLAREKFLRQQQRRTSARRKARMRNAAIASVLGVILIGSVALYTTGVVLGDDDDKTNAGAEVTPSASAPSKAPDPCDKPADGKVKTQTWKKEPAMTVDKSAKYTMKLATTCGDIDLALKADAAPHTVNSFDFLAGKGYFDHTKCHRLTTEGIYVLQCGDPTAQGNGGPGYNIPDENLKDKSLKDNVYPAGTVAMANTGQPDSGGSQFFLVYQDSQLPPSYTPFGTVSKEGMTVLKKIASAGAQPADPTTGNTAPNATVVIDKATVSKS”, for which the protein production entry is given as “failed”.

For “MVVANDLSSKILPRVLIVSRRTLRKNKYVDFVGEYHLDLIVSSGAVPVIVPRVNGIHSMLQSFEPIHGVLLCEGEDVDPSLYADDELSDLSPEDMEEIKKAHAEDMTIDREKDSIELTLARLCLERNIPFLGICRGSQILNVAAGGTLYQDIDKELGTTMTTTNHIDYDNYDGHRHEARIVEETPLHKLFEEMEIMVNSYHHQGVKRLAQRFVPMAYAPDGLIEGFYDPNRYDPKEGQFLMGLQFHPERMRLPGSDEFDYPGCALVYQEFVKAVIAFQKKQVNATQVEMKRKTTTLVKSFSQAEFLEVRDSFVLHTYRLYVLPLNIGFSDMAE”, the protein production result is reported as “failed”.

For “MVVLAVLLPVVFGALLLLGLPRALGVLGAGLSFLLNLYLFLTHPGGVAHAFQAPLLPGAGVYWAFGLDGLSALFFLTIALTVFLGALVARVEGRFLGLALLMEGLLLGLFAARDLLVFYVFFEAALIPALLMLHLYGGEGRTRALYTFVLFTLVGSLPMLAAVLGARLLSGSPTFLLEDLLAHPLQEEAAFWVFLGFALAFAIKTPLFPLHAWLPPFHQENHPSGLADALGTLYKVGVFAFFRFAIPLAPEGFAQAQGLLLFLAALSALYGAWVAFAAKDFKTLLAYAGLSHMGVAALGVFSGTPEGAMGGLYLLAASGVYTGGLFLLAGRLYERTGTLEIGRYRGLAQSAPGLAALALILFLAMVGLPGLSGFPGEFLTLLGAYKASPWLAALAFLSVIASAAYALTAFQKTFWEEGGSGVKDLAGAEWGFALLSVLALLLMGVFPGYFARGLHPLAEAFAKLLGGGA”, the protein production result was “failed”.

Regarding “MVWGKGLARRLYGLTGVVWSKYLDIDERGRLIVKLKGYKIDIAKLVSDKQLPGAHIRILPIIRYMMDQVYEAFMEAFRKFGYKGAFKPVYPLKSNSTPIVVDTIWRYGIKYSWGFNAGTYPEVKLISKYINEKPRLLVVDGIKDNKLLDLLSKMCDSWEIIVDIESMRDADLLSKYQDLNIGLRVKVTSKSSGLWSHSSGLDSKFGLLINTLDEMVEKHPWVPNRTVLLHVHAGSQITDKNRLEDIIRETIILYNNLVKTGFKNIRYIDFGGGLAYPYIEASNHVFSANYSLNEYAEILVKELVKSAENTPDIVFEGGRYIVAPHRITVTKIIDTRPYSTSDRGETSYPIVEEIKNTENIKELVYVSRKAREVITRLMLKFPINIESRRILEKLLTSINEAITSKAYEIIHRDNDKALEELIKTPNYVLEELVSPTRRFFASFSLFSHLPDTIIADQYFKIIPLQRLNEKPEVLGVISDLTCDSMGEYSSFITFLPNNIEYETEDLFTSLDHKLMFIPGKTLRLKGVPLHIPRKNEDYYIAFLDTGAYQDMLSMNHNLLNGYPEIIIDIINDNLKIIYENLESAENYPL”, the protein production result was “failed”.

With “MVWHYSNIMHKKSKAQLQDYFKDLTAIGNASSEQMEANRDGIQGETEENINPPPQNPKKRLSLPNLSSPSLAAEAENLESAGQPGSDYLSNSFGQANKANVAVAPVNSDYIAPEKLEDQPGDFFGGKRWFWLGGILVLLVGGTALTLPKALEMVNGWRQEAQLKAYEQEQHQDSEVLRLALLPPDQRRSKLEAIANQEVLSLERSRARFLLAGDLLAEFEGGPALRVLEGLEVQYPVLAPYILLMRGRGYQLSNENDQAEATWQDILDQYPDSPVVVNALENLGSLDETYWQQAIADHPGHPRTLAILHQQLESEPNALEIQRQILQNHPTDGRTAAVINSLTANRQGELTPEDWQAMGDNFWHRRIYNQAIAPYEKAPSNARNLYRLARAQQISKLDNEAKENYRQLIATYPDSEETALALRRLAELVPPREGVQYLQQLEQQFPDQGASALAARIDLLAKFDANQAQQARQALLQKYPNSDAAADYRWRQAQEFAKAGNYTEAWRWAKEIANQNPQSDVTPKAIFWIGKWAQQLGRSADSKAAFETVLAKYPQSYYAWRSAVLLGWQVGDFNSVRFLNPPVTVPDQRPLPPAGSPTFRELYRLAQDQEAIELFNAEVRARAEGEATPELTVNEGFTEALLKLTQQEYLQGINQVLNLRNPEDPEQRKQWEELRSTRDYWQTLFPFPYQQLIFEWSEKRQVNPFLVTALIRQESRFEKNIQSPVGATGLMQIMPATAEWIAPQIGLKEYSLTDPTDNVNMGTWYFDHTHKTYNNNSALAVASYNAGPGNVAKWLQEFNNADPDLFVERIPFAETKGYVESVFGNYWNYLRIYDPDVEKLMGQVGKN”, the protein production entry is on record as “failed”.

As to “MVWPHLYFSELEAQHIMTSIISSSWFKFSVVAASITGIMMLSGCAKKEAQDLTTLNIGFQKYGLLPIVKERGELDKILKKEGITIKWVEFPAGPQLLEGLNVGSVVFGEAGEAPPIFAQAANSNLVYVANQPAAPNAEALIVQKNSSVHSVQDLKGKRIALNKGSNVHYLLLKLLEKNHLTLNDIQVVYLPPADARAAFEKGAVDAWVIWDPFFAAAEQQIGARVIATGQDLVSNHQFYLADRKFAQNHPEVLKTLVKELNQSTEWVKTHQDDAAKLLEKPTALDFNILKTSISRMGFGVTPLSNTVINEQQQVADAFYQQKLIPQPLKIQDAILKGEIK”, the protein production entry is on record as “failed”.

“MVYKNILVGLDGSSQADNAFKVACGLANALSADLHPIWIVNRDRGMDSSFGVNEDFYRDQYHQVQDKLVSYVEDAKKAGLKVTGEALVGNIKLVLANEYPKEHGIDLIVLGNTGLNTVEKLVVGSHTSYVIRNSACDVLVVK”: the protein production entry was “failed”.

For the sequence “MVYPRMGRVPLPPKGAQHYTTMCQFCNVGCGYDVYVWPAGAEGSPEPGGHGIEYKIVDEAYGRNLVKQPDFTKEHTGLSAEEGEPWISEAMVVKTIRRTWERGRGTGGWREVYVAQVPSPECPINWGNHSVRGGTQAERIWSPWNIAGERRLTKPLVRFGGRLEPVSWEYAIDLVARVVKGVIDKWGIERPGWGKEGHAVFAHRMDHGGGGGGGMIFNTVVGLFFFYGVRTAFARIHNRPFFGPENPAAGDAGPGAMNTSYHDLRLADTIILWGNNPYSTATVMFVKHVLDNLRGATKAEKQRWFNPGEPVIDSRIIIVDPRRTETVEAAEAAAGKDRVLHLQVKPGTDIVLANAIARVIYERYGDVVEEFVNHYRSAAGWGFKWDEEGFQKYVSEALQVGEETLDEVLAEAESITGVPRDKIELAAKWIAERKEGGYPKRVWLMYEKGIIWNQNYRSIYSLFDLCMIAGATRGLPGCGCQRQGGHQEGFASPAPPPPPWTDERHHIAYPDKSLYDEYYNTKYPRADFYMPTTDFRLANGEGKVLWVIDMDNYRLAPNSQRLKAVVGDRAWRVTRYVFAEAYANVGGKESEPNYDPNALEPVITTPPSSREYAEKVLQALEETGGLFVIVEDIYPTFMVEDAHVVLPAAFNNGEWPDVRMGVHERRFRIADAWLDPPGEAKPDWWILANVAKRIVELYEEEGRGGDPVAERFRKAFKPIWDAMEANARDPTVEVENEIFKTYIANADEAYARLGVHWEVQYWTPEFKKLDLNILRKLRTIGTVLPITKLDVKPDGTIEVRGVVNIMEPALNDTYREEVVVVKPDGTIVRRIEVVPSNETVRSYVPGHLKPWPAVWDKYPPYVDELIRKGYKYWVVNGRYNAIWQTGYADPNVVEIMARHPMNIVQVNPEDAAKEGLENGDIVVIYNDYGSTTAMVWVTRVVAPGTIFLIMAHPKAVGANAVTTPSVDPAAQNPDYKLTLANLRKIGRADETIIKKVTFKDIRFAVR”, the protein production result is listed as “failed”.

On to “MVYSTTTGRFCGLFCLRDQMPVSTNRHPYSENTMEIIVNGEARAATPMSMLELLRSLDIDPRRVAVELNHDILPKGEYESTILNDGDRIEIVHFVGGGLEHHHHHH”, for which the protein production result is “not failed”.

Regarding “MVYVGTSGFSFEDWKGVVYPEHLKPSQFLKYYWAVLGFRIVELNFTYYTQPSWRSFVQMLRKTPPDFYFTVKTPGSVTHVLWKEGKDPKEDMENFTRQIEPLIEEQRLKMTLAQFPFSFKFSRKNVEYLEKLRESYPYELAVEFRHYSWDREETYEFLRNHGITFVVVDEPKLPGLFPYRPITTTDYAYFRFHGRNERWFEAEGEERYDYLYSEEELKTLFEDVVELSRRVKETYVFFNNCYKGQAAINALQFKKMLEERV”, the protein production entry was “not failed”.

Take “MWDETVAGPKPEHGLGRLRNKITTQPLDIKGVGEGSSSKTVAAVAGSPGTPTTPGSARKENVWRSVFHPGSNIATRGMGTNLFDKPSHPNSPTVYDWLYSDDTRSKHR”: the protein production result is recorded as “failed”.

Regarding “MWHIFERFVNEYERWFLVHRFAYLSELQAVKCLLPEGRGVEIGVGTGRFAVPLKIKIGVEPSERMAEIARKRGVFVLKGTAENLPLKDESFDFALMVTTICFVDDPERALKEAYRILKKGGYLIVGIVDRESFLGREYEKNKEKSVFYKNARFFSTEELMDLMRKAGFEEFKVVQTLFKHPSELSEIEPVKEGYGEGAFVVIRGTKK”, the protein production result was “not failed”.

Regarding “MWHYLFLAIYVTMIIGIATVTKKRIKGVSDFLLGGRNVNPWMSAFSYGTAYFSAVIFIGFAGKMGWSFGIPTMWIVVGNTIIGSFLAWQVLGKKTREMTQRLGASTMPSFLEKRYKSKNLESLTAFIIFFFLVPYSASIYKGLNFLFEGFGISPMNAYILMAALTAIYLYFGGFIAATLADFVQGCIMVIGVLLMVFFLSSNPEVGGFSGMLSNLSSIDPILVSPISEASFIPIIGLALLTSIGSWGLPQMIHKFYTIKSEKAAVSAKWVSTAFAFIITFGAAYIGTVSRLFYPDAASKVAAGLTSPDMIVPKIMEIALPDWVAALILVLVISASMSTLASLVLASSSVVSIDFVKGRLKPDLSDKNTMILMRLLCVLFVALSFVLAIVPNSYVLSLMALSWGLVSGCLLAPYFLGLYWKRTTKEGVWAGITSALAIMLGGACYFGVNSVYMPAVGSLAMIAPIFVVMAVSLITKPFESEHIDYIFNKK”, the protein production result is “failed”.

As for “MWITGASGGLGERIAYLCAAEGAHVLLSARREDRLIEIKRKITEEWSGQCEIFPLDVGRLEDIARVRDQIGSIDVLINNAGFGIFETVLDSTLDDMKAMFDVNVFGLIACTKAVLPQMLEQKKGHIINIASQAGKIATPKSSLYSATKHAVLGYSNALRMELSGTGIYVTTVNPGPIQTDFFSIADKGGDYAKNVGRWMLDPDDVAAQITAAIFTKKREINLPRLMNAGTKLYQLFPALVEKLAGR”, the protein production entry is recorded as “failed”.
